Measurements published in patent publication US11111484B2, “Streptococcus bacteriophage lysins for detection and treatment of gram positive bacteria” (priority 2011, dated 2021).

Tests used:
[1] = system: S. suis 10 (ST2); experiment: ΔPlySs1 OD600 lysis, 1 hr, optimal buffering conditions; format: cell-based, Streptococcus suis
Method: (§1) Truncated PlySs1(ΔPlySs1) lysin activity was determined against different cell types. Given the above experiments, the following optimal buffering conditions were employed for all further in vitro experiments with ΔPlySs1: 20 mM phosphate buffer, pH=7.8, 2 mM EDTA. A range of lysin concentrations, from 6.5-130 μg/ml, were introduced to live S. suis cells in this buffer. Three strains were considered particularly relevant: 7711, the serotype 7 strain that encodes PlySs1; S735, the serotype 2 reference strain; and 7997, a highly virulent serotype 9 strain. In terms of bacterial viability, only the highest PlySs1-concentration (130 μg/ml) led to a >90% decrease in CFUs for 7711, S735, and 7997 after 1 hr treatment (TABLE 2). The lysin was also tested against actively-dividing cells in broth culture (strain 7711) (FIG. 20).
(§2) ΔPlySs1 was further tested against a panel of 19 other S. suis strains of diverse serotypes, as well as other species of Gram-positive bacteria. The same lysin concentrations were used as above. For each dosage, the observed lysis values after 1 hr are listed in TABLE 3 and TABLE 4, and the information is summarized graphically in FIG. 21.

[2] = system: S. suis 6112 (ST1); experiment: as above; format: cell-based, Streptococcus suis
Method: as §1, §2

[3] = system: S. suis 6388 (ST1); experiment: as above; format: cell-based, Streptococcus suis
Method: as §1, §2

[4] = system: S. suis 8076 (ST9); experiment: as above; format: cell-based, Streptococcus suis
Method: as §1, §2

[5] = system: S. suis ST11; experiment: as above; format: cell-based, Streptococcus suis
Method: as §1, §2

[6] = system: S. suis ST13; experiment: as above; format: cell-based, Streptococcus suis
Method: as §1, §2

[7] = system: S. suis ST14; experiment: as above; format: cell-based, Streptococcus suis
Method: as §1, §2

[8] = system: S. suis ST1; experiment: as above; format: cell-based, Streptococcus suis
Method: as §1, §2

[9] = system: S. suis ST2; experiment: as above; format: cell-based, Streptococcus suis
Method: as §1, §2

[10] = system: S. suis ST5; experiment: as above; format: cell-based, Streptococcus suis
Method: as §1, §2

[11] = system: S. suis ST6; experiment: as above; format: cell-based, Streptococcus suis
Method: as §1, §2

[12] = system: S. suis ST8; experiment: as above; format: cell-based, Streptococcus suis
Method: as §1, §2

[13] = system: S. suis ST9; experiment: as above; format: cell-based, Streptococcus suis
Method: as §1, §2

[14] = system: MRSA; experiment: MRSA wound infection model in rats; settings: dorsal wound; 500 μL + 100 μL PlySs2 at 10 mg/mL; after 10 days

B1: ΔPlySs1: truncated PlySs1 lysin, SEQ ID NO:2, N-terminal 254 amino acids: only N-terminal enzymatic and central binding domains (protein, listed as Streptococcus suis)
chain: MTINLETSIRWMSDRVGKVSYSMDYRNGPNSYDCSSAVYYALMAGGAISAGWAVNTEYMHDWLIRNGYVLVAENKPFNAQRHDVCILGKRGYSSGAGGHVVIFVDNVNVIHCNYARNGISIDNYNQVHRGMYYYLYRPANQPSISNKSLDQLVKETLAGVHGNGDTRKASLGSQYEAVMAVINGKASASEKSDEELAREVLAGKHGAGEDRKRSLGPRYEPVQAKVNELLKAKEKPSETAKNEPQTVQFKEDGDL
- 1-hour treated/untreated OD600-ratio ([1]; 6.5 μg/ml): 0.29
- 1-hour treated/untreated OD600-ratio ([1]; 13 μg/ml): 0.18
- 1-hour treated/untreated OD600-ratio ([1]; 30 μg/ml): 0.10
- 1-hour treated/untreated OD600-ratio ([1]; 65 μg/ml): 0.05
- 1-hour treated/untreated OD600-ratio ([1]; 130 μg/ml): 0.02
- 1-hour treated/untreated OD600-ratio ([2]; 6.5 μg/ml): 0.14
- 1-hour treated/untreated OD600-ratio ([2]; 13 μg/ml): 0.11
- 1-hour treated/untreated OD600-ratio ([2]; 30 μg/ml): 0.06
- 1-hour treated/untreated OD600-ratio ([2]; 65 μg/ml): 0.02
- 1-hour treated/untreated OD600-ratio ([2]; 130 μg/ml): 0.01
- 1-hour treated/untreated OD600-ratio ([3]; 6.5 μg/ml): 0.15
- 1-hour treated/untreated OD600-ratio ([3]; 13 μg/ml): 0.13
- 1-hour treated/untreated OD600-ratio ([3]; 30 μg/ml): 0.06
- 1-hour treated/untreated OD600-ratio ([3]; 65 μg/ml): 0.03
- 1-hour treated/untreated OD600-ratio ([3]; 130 μg/ml): 0.02
- 1-hour treated/untreated OD600-ratio ([4]; 6.5 μg/ml): 0.52
- 1-hour treated/untreated OD600-ratio ([4]; 13 μg/ml): 0.40
- 1-hour treated/untreated OD600-ratio ([4]; 30 μg/ml): 0.21
- 1-hour treated/untreated OD600-ratio ([4]; 65 μg/ml): 0.14
- 1-hour treated/untreated OD600-ratio ([4]; 130 μg/ml): 0.04
- 1-hour treated/untreated OD600-ratio ([5]; 6.5 μg/ml): 0.64
- 1-hour treated/untreated OD600-ratio ([5]; 13 μg/ml): 0.47
- 1-hour treated/untreated OD600-ratio ([5]; 30 μg/ml): 0.32
- 1-hour treated/untreated OD600-ratio ([5]; 65 μg/ml): 0.19
- 1-hour treated/untreated OD600-ratio ([5]; 130 μg/ml): 0.07
- 1-hour treated/untreated OD600-ratio ([6]; 6.5 μg/ml): 0.32
- 1-hour treated/untreated OD600-ratio ([6]; 13 μg/ml): 0.17
- 1-hour treated/untreated OD600-ratio ([6]; 30 μg/ml): 0.04
- 1-hour treated/untreated OD600-ratio ([6]; 65 μg/ml): 0.02
- 1-hour treated/untreated OD600-ratio ([6]; 130 μg/ml): 0.02
- 1-hour treated/untreated OD600-ratio ([7]; 6.5 μg/ml): 0.79
- 1-hour treated/untreated OD600-ratio ([7]; 13 μg/ml): 0.57
- 1-hour treated/untreated OD600-ratio ([7]; 30 μg/ml): 0.33
- 1-hour treated/untreated OD600-ratio ([7]; 65 μg/ml): 0.15
- 1-hour treated/untreated OD600-ratio ([7]; 130 μg/ml): 0.06
- 1-hour treated/untreated OD600-ratio ([8]; 6.5 μg/ml): 0.80
- 1-hour treated/untreated OD600-ratio ([8]; 13 μg/ml): 0.34
- 1-hour treated/untreated OD600-ratio ([8]; 30 μg/ml): 0.36
- 1-hour treated/untreated OD600-ratio ([8]; 65 μg/ml): 0.19
- 1-hour treated/untreated OD600-ratio ([8]; 130 μg/ml): 0.06
- 1-hour treated/untreated OD600-ratio ([9]; 6.5 μg/ml): 0.79
- 1-hour treated/untreated OD600-ratio ([9]; 13 μg/ml): 0.70
- 1-hour treated/untreated OD600-ratio ([9]; 30 μg/ml): 0.49
- 1-hour treated/untreated OD600-ratio ([9]; 65 μg/ml): 0.34
- 1-hour treated/untreated OD600-ratio ([9]; 130 μg/ml): 0.17
- 1-hour treated/untreated OD600-ratio ([10]; 6.5 μg/ml): 0.78
- 1-hour treated/untreated OD600-ratio ([10]; 13 μg/ml): 0.59
- 1-hour treated/untreated OD600-ratio ([10]; 30 μg/ml): 0.39
- 1-hour treated/untreated OD600-ratio ([10]; 65 μg/ml): 0.22
- 1-hour treated/untreated OD600-ratio ([10]; 130 μg/ml): 0.10
- 1-hour treated/untreated OD600-ratio ([11]; 6.5 μg/ml): 0.76
- 1-hour treated/untreated OD600-ratio ([11]; 13 μg/ml): 0.56
- 1-hour treated/untreated OD600-ratio ([11]; 30 μg/ml): 0.40
- 1-hour treated/untreated OD600-ratio ([11]; 65 μg/ml): 0.21
- 1-hour treated/untreated OD600-ratio ([11]; 130 μg/ml): 0.06
- 1-hour treated/untreated OD600-ratio ([12]; 6.5 μg/ml): 0.25
- 1-hour treated/untreated OD600-ratio ([12]; 13 μg/ml): 0.12
- 1-hour treated/untreated OD600-ratio ([12]; 30 μg/ml): 0.06
- 1-hour treated/untreated OD600-ratio ([12]; 65 μg/ml): 0.03
- 1-hour treated/untreated OD600-ratio ([12]; 130 μg/ml): 0.03
- 1-hour treated/untreated OD600-ratio ([13]; 6.5 μg/ml): 0.50
- 1-hour treated/untreated OD600-ratio ([13]; 13 μg/ml): 0.30
- 1-hour treated/untreated OD600-ratio ([13]; 30 μg/ml): 0.23
- 1-hour treated/untreated OD600-ratio ([13]; 65 μg/ml): 0.13
- 1-hour treated/untreated OD600-ratio ([13]; 130 μg/ml): 0.05

B2: PlySs2: Streptococcus suis prophage lysin, SEQ ID NO:3; N-terminal CHAP domain and C-terminal SH3-type 5 domain (protein, listed as Streptococcus suis)
chain: MTTVNEALNNVRAQVGSGVSVGNGECYALASWYERMISPDATVGLGAGVGWVSGAIGDTISAKNIGSSYNWQANGWTVSTSGPFKAGQIVTLGATPGNPYGHVVIVEAVDGDRLTILEQNYGGKRYPVRNYYSAASYRQQVVHYITPPGTVAQSAPNLAGSRSYRETGTMTVTVDALNVRRAPNTSGEIVAVYKRGESFDYDTVIIDVNGYVWVSYIGGSGKRNYVATGATKDGKRFGNAWGTFK
- drop of CFU's of MRSA compared with control rats [14]: 3-4 logs
